Earlier results as cited in PMC4114557.
Where two headings read alike, the source gives them in different places.

Assays:
[1] = biological target: Colicin E9 R-domain (Escherichia coli) (UniProt P09883)
[2] = biological target: Colicin E3 R-domain (Escherichia coli) (UniProt P00646)
BtuB (Escherichia coli) [3] = biological target: BtuB (Escherichia coli) (UniProt P06129)
BtuB (Escherichia coli) [4] = biological target: BtuB (Escherichia coli) (UniProt P06129); remark: listed apart in the source
OmpF (Escherichia coli) [5] = biological target: OmpF (Escherichia coli) (UniProt P02931)
OmpF (Escherichia coli) [6] = biological target: OmpF (Escherichia coli) (UniProt P02931); remark: listed apart in the source
BtuB (Escherichia coli) [7] = biological target: BtuB (Escherichia coli) (UniProt P06129); remark: listed apart in the source
OmpF (Escherichia coli) [8] = biological target: OmpF (Escherichia coli) (UniProt P02931); remark: listed apart in the source

Chain of UniProt P02931 (P02931 23-362): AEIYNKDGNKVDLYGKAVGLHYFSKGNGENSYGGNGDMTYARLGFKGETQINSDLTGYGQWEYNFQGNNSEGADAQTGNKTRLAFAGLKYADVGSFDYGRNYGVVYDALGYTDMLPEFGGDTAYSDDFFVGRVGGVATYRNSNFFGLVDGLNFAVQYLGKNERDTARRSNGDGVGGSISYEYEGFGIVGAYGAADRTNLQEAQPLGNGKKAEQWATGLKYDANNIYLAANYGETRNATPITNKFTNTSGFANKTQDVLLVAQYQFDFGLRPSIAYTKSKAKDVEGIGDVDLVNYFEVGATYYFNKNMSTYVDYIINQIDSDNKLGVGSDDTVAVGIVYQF

In the case of BtuB (from UniProt P06129), the Kd [1] is listed as 1 nM and the Kd [2] is listed as 1 nM.

For “Colicin E2 R-domain (from UniProt P04419)”, the Kd (BtuB (Escherichia coli) [3]) is listed as 1 nM.

For “Colicin E3 R-domain (from UniProt P00646)”, the Kd (BtuB (Escherichia coli) [4]) is listed as 1 nM.

In the case of Colicin E9 OBS1 (from UniProt P09883), the Kd (OmpF (Escherichia coli) [5]) is given as 2000 nM.

For Colicin E9 OBS2 (from UniProt P09883), the Kd (OmpF (Escherichia coli) [6]) is listed as 24000 nM.

In the case of “Colicin E9 R-domain (from UniProt P09883)”, the Kd (BtuB (Escherichia coli) [7]) is given as 1 nM.

For “Colicin N T-domain (from UniProt P08083)”, the Kd (OmpF (Escherichia coli) [8]) is given as 3000 nM.
